Test results: patent publication US20240294963

Legend:
Interferon-gamma (IFNγ) = Interferon-gamma (IFNγ) (UniProt P01579)
[1] = system: T1, peptide with the sequence TNYS found in IFNγ
T1 sequence: TNYS

[2] = system: T2, peptide with the YNST sequence from Fc
T2 sequence: YNST

[3] = system: constant region (Fc) of a human immunoglobulin antibody (IgG1) [IgG part: P01857]
[4] = target: Granulocyte-Macrophage Colony-Stimulating Factor (GM-CSF) (UniProt P04141)
[5] = system: T3, peptide with the LNLS sequence from GM-CSF
T3 sequence: LNLS

Interferon-gamma (IFNγ), sequence (P01579 24-166): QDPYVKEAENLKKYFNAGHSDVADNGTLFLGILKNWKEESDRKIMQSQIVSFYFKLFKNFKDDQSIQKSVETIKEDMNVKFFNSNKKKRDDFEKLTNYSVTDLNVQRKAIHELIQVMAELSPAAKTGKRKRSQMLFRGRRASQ
Granulocyte-Macrophage Colony-Stimulating Factor (GM-CSF), sequence (P04141 18-144): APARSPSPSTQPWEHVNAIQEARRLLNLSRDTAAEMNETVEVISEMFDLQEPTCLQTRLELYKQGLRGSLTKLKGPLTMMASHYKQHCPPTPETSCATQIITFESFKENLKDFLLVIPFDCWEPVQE

ApQ mutant A469I
protein modification (glycosylation), LC-qTOF of tryptic peptides (Interferon-gamma (IFNγ)): increase the modification of the therapeutic proteins IFNγ GM-CSF, and Fc using the A469I, T438S, and H495D mutants of ApQ, respectively
peptide modification (glycosylation), SAMDI-MS [1]: the purified A469I mutant glycosylated the sequence TNYS found in IFNγ more efficiently than did ApQ

ApQ mutant H495D
peptide modification (glycosylation), SAMDI-MS [2]: H495D glycosylated the YNST sequence from Fc more efficiently than did ApQ
modification of Fc relative to ApQ, 2 µM H495D added before CFPS [3]: significantly increased the modification of Fc to 60% or by 1.3-fold
modification of Fc, 2 µM H495D added before CFPS [3]: significantly increased the modification of Fc to 60% or by 1.3-fold
modification of Fc, 5 µM H495D during CFPS [3]: 80% modification of Fc could be achieved

ApQ mutant T438S
protein modification (glycosylation), LC-qTOF of tryptic peptides [4]: increase the modification of the therapeutic proteins IFNγ GM-CSF, and Fc using the A469I, T438S, and H495D mutants of ApQ, respectively
peptide modification (glycosylation), SAMDI-MS [5]: T438S glycosylated the LNLS sequence from GM-CSF more efficiently than did ApQ

Q469A mutant of Actinobacillus pleuropneumoniae N-glycosyltransferase (ApNGT)
protein modification (glycosylation), LC-qTOF of tryptic peptides (Interferon-gamma (IFNγ)): ApQ showed no detectable modification of IFNγ (marked as "ND")
glycosylation efficiency of Fc, 2 µM ApQ added after CFPS [3]: the glycosylation efficiency of Fc was increased from 15% to 46%
glycosylation efficiency of Fc, 2 µM ApQ added before CFPS [3]: the glycosylation efficiency of Fc was increased from 15% to 46%
